Experimental data taken from patent US20030219899A1.

Tests used:
Test in all cases: cell-based or functional assay
[1] = target: human coxsackie-adenovirus receptor (hCAR) (human) (UniProt P78310)
Ad3 receptor = target: Ad3 receptor
[2] = target: hCAR-tailless, truncation mutant of human CAR lacking the cytoplasmic domain (human) (UniProt P78310)

recombinant Ad5 fiber knob protein with N-terminal 6xHis tag expressed in E. coli (from UniProt P11818 387-581)
luciferase activity of Ad5luc1 on HeLa cells with 100 µg/ml Ad5 knob, against that without knob protein (% of activity without knob protein) [1]: < 5

mosaic adenovirus AdMSluc1 displaying both the Ad5 wild-type fiber and the Ad5/3 chimeric fiber on the same virion (from UniProt P11818 1-581; P11818 1-399; P04501 132-319)
luciferase gene transfer of AdMSluc1 to C33A cells in the presence of purified Ad3 knob (Ad3 receptor): 100 µg/mL
AdMSluc1 luciferase activity (normalized to Ad5/3luc1) in U118-hCAR cells against parental U118 cells [1]: 6 fold
luciferase gene transfer of AdMSluc1 to C33A cells in the presence of purified Ad5 knob; lowest knob concentration with significant block [1]: 0.1 µg/mL
AdMSluc1 luciferase activity (normalized to Ad5/3luc1) in U118-hCAR-tailless cells against parental U118 cells [2]: 7.5 fold

recombinant Ad3 fiber knob protein with N-terminal 6xHis tag expressed in E. coli (from UniProt P04501 119-319)
luciferase activity of Ad5/3luc1 on HeLa cells with 100 µg/ml Ad3 knob, against that without knob protein (% of activity without knob protein) (Ad3 receptor): < 5

Ad5 wild-type fiber, as displayed on Ad5luc1 (from UniProt P11818 1-581)
Ad5luc1 luciferase activity (normalized to Ad5/3luc1) in U118-hCAR cells against parental U118 cells [1]: 11 fold
Ad5luc1 luciferase activity (normalized to Ad5/3luc1) in U118-hCAR-tailless cells against parental U118 cells [2]: 16 fold
